Like-named read-outs stand apart in the source and are kept apart here.
Key:
Assay in all cases: SPR
[1] = biological target: complement factor H, allotypic variant Ile62 (human) (UniProt P08603)
[2] = biological target: complement factor H, allotypic variant Val62 (human) (UniProt P08603)
[3] = biological target: complement factor H, allotypic variant Ile62 (human) (UniProt P08603); remark: listed apart in the source

Kd [1]: 1040 nM
Kd [2]: 1330 nM
Kd [3]: 1030 nM
Substance: C3b (from UniProt P01024 23-667; P01024 749-1663) (domain or fragment)
